Columns and labels:
[1] = molecular target: T1, KAAG1 disordered region peptide, PGAAAAHLPRWPPPQLAASRREA (biotin label); assay: modified sandwich ELISA, grade by the table's key
T1 construct: also called KAAG1 Peptide
T1 peptide: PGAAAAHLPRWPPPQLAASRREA
Description: (§1) Binder proteins were coated on the surface of a high binding capacity 96 well plate by incubating 100 μL of protein at 5 μg/mL in a coating solution (10 mM Tris pH 8.8, 50 mM NaCl), overnight at 4 C. The next morning, the coating solution was aspirated out and wells were washed once with 300 μL ELISA wash buffer (1×PBS, 0.05% Tween-20) and solution was aspirated out. The wells were blocked with 200 μL of a blocking buffer (1×PBS, 0.05% Tween-20, 3% BSA) at room temperature for 1 hour. After one hour, the blocking solution was aspirated out and 100 μL of biotinylated polypeptide in a binding buffer (1×PBS, 0.05% Tween-20, 0.5% BSA) at various concentrations was added to the appropriate well and incubated for 20 minutes. Peptide solution was aspirated out after 20 minutes and wells were washed 5 times with 300 μL of ELISA wash buffer. To detect the biotinylated peptide, 100 μL of streptavidin-HRP (50 ng/ml) was added to each well and incubated for 1 hour. The wells were subsequently washed 5 times with 300 μL of ELISA wash buffer. 100 μL of QuantaBlu Fluorogenic Peroxidase substrate solution was added to each well, incubated for 30 minutes and reaction stopped by adding 100 μL of stop solution. Fluorescent signal from each well was measured using a Biotek Cytation5 plate reader by exciting the fluorophore at […] and measuring emission at 420 nm. Fluorescent signals were plotted as a function of polypeptide concentration.

[2] = molecular target: T2, CYSLTR2 N-terminal disordered region peptide, MERKFMSLQPSISVSEMEPNGTFSNNNSRNCTIENFKREFFP (biotin label); assay: modified sandwich ELISA, grade by the table's key
T2 construct: also called CysLT2; CysLT2r
T2 peptide: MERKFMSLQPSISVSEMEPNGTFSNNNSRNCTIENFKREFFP
Description: as §1

[3] = molecular target: T3, Urotensin-2 receptor N-terminal peptide, MALTPESPSSFPGLAATGSSVPEPPGGPNATLNSSWASPTEPSSLEDLVATGTI (biotin label); assay: modified sandwich ELISA, grade by the table's key
T3 construct: also called Urotensin IIR; GPCR2 (Urotensin II)
T3 peptide: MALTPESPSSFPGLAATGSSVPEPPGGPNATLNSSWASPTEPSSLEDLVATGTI
Description: as §1

[4] = molecular target: T4, TNFRSF13B disordered region peptide, LPPELRRQRSGEVENNSDNSGRYQ (biotin label); assay: modified sandwich ELISA, grade by the table's key
T4 construct: also called TNFRSF13B Peptide
T4 peptide: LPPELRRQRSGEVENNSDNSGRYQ
Description: as §1

[5] = molecular target: T5, CD74 disordered region peptide (CLIP), PPKPVSKMRMATPLLMQALPMGALP (biotin label); assay: modified sandwich ELISA, fluorescence grade by the table's key
T5 construct: also called CD74 Peptide
T5 peptide: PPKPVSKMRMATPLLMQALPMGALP
Description: as §1

fluorescent signal [5]: > 400000 fluorescentsignal
B1: engineered scaffold protein S084 (designed binder)
chain: IKEEHVIQQSEYYTNPDQSGEFQFDFDGDEIFHVDMAKKETVWRLEEFGRFASFEAQGALANIAVDKANLEIMTKRSNYTGDTRPRFNWQLKFECHFFNGTERVRLLERCNYNQEESVRFDSDVGEYRAVTELGRPDAEYWNSQKDLLEQRRAAVDTYCRHNYGVGESFTVQRRGGSHHHHHHLE
binding result [1]: no binding (tested: <5000 (fluorescence, key)) | binding result [2]: no binding (tested: <5000 (fluorescence, key)) | binding result [3]: no binding (tested: <5000 (fluorescence, key)) | binding result [4]: no binding (tested: <5000 (fluorescence, key))

— US20250387450A1 (AIKIUM, published 2025)
